Experimental data from publication doi:10.1101/293530.
Each block holds one molecule with its values, some of them ahead of it.

Legend:
[1] = biological target: mCherry-sCD95L; assay: fluorescence correlation spectroscopy
[2] = biological target: mCherry-IZ-sCD95L; assay: fluorescence correlation spectroscopy
[3] = biological target: T1, CD95-mEos2 (human), P25445; assay: quantitative PALM; settings: remark: other sources report otherwise
T1 chain: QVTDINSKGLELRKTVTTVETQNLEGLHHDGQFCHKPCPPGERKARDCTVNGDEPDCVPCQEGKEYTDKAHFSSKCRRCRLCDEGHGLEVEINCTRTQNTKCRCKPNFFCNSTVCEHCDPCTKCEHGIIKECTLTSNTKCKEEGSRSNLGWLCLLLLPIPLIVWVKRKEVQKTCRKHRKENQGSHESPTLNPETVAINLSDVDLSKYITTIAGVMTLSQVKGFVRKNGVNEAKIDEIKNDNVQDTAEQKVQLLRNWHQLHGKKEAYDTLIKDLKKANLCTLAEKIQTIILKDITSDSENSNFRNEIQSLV

- stoichiometry N [1]: 3
Molecule: mCherry-sCD95L (ligand)

- stoichiometry N [2]: 3
Molecule: mCherry-IZ-sCD95L (ligand)

- fraction of dimers [3]: 42%
- fraction of monomers [3]: 58%
B1: CD95-mEos2, P25445 26-335 (receptor)
chain: QVTDINSKGLELRKTVTTVETQNLEGLHHDGQFCHKPCPPGERKARDCTVNGDEPDCVPCQEGKEYTDKAHFSSKCRRCRLCDEGHGLEVEINCTRTQNTKCRCKPNFFCNSTVCEHCDPCTKCEHGIIKECTLTSNTKCKEEGSRSNLGWLCLLLLPIPLIVWVKRKEVQKTCRKHRKENQGSHESPTLNPETVAINLSDVDLSKYITTIAGVMTLSQVKGFVRKNGVNEAKIDEIKNDNVQDTAEQKVQLLRNWHQLHGKKEAYDTLIKDLKKANLCTLAEKIQTIILKDITSDSENSNFRNEIQSLV
